Patent US20180142030A1 (Bristol-Myers Squibb, published 2018)
Residue numbers refer to the chain shown, from its start. In names and notes the source's numbering stands.

B1: 12D6-24 V4 (antibody, human IgG1, kappa)
heavy: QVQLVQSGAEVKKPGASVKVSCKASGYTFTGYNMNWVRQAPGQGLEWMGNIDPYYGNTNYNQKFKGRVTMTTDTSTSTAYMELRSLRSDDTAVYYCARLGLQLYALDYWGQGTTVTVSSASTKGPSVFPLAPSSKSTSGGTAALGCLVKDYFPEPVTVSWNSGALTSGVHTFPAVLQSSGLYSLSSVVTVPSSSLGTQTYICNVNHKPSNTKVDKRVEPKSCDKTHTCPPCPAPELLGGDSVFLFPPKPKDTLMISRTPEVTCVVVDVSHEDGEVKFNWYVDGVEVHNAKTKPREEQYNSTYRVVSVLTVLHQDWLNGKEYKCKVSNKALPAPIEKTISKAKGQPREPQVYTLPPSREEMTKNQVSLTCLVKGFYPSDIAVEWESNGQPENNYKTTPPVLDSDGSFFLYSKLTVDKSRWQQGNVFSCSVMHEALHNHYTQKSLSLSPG
light: DIVMTQTPLSLPVTPGEPASISCRSSQSLVHSNANTYLHWYLQKPGQSPQLLIYKLTNRFFGVPDRFSGSGSGTDFTLKISRVEAEDVGVYYCSQSIHVPWTFGGGTKVEIKRTVAAPSVFIFPPSDEQLKSGTASVVCLLNNFYPREAKVQWKVDNALQSGNSQESVTEQDSKDSTYSLSSTLTLSKADYEKHKVYACEVTHQGLSSPVTKSFNRGEC
B2: 5F11-45 V9 D270E (antibody, human IgG1, kappa)
heavy: QVQLVQSGAEVKKPGSSVKVSCKASGYTFTDLSMHWVRQAPGQGLEWMGYITPSSGYTAYNQKFKGKTTLTADKSTSTAYMELSSLRSEDTAVYYCARLILQRGAYWGQGTLVTVSSASTKGPSVFPLAPSSKSTSGGTAALGCLVKDYFPEPVTVSWNSGALTSGVHTFPAVLQSSGLYSLSSVVTVPSSSLGTQTYICNVNHKPSNTKVDKRVEPKSCDKTHTCPPCPAPELLGDDSVFLFPPKPKDTLMISRTPEVTCVVVDVSHEEGEVKFNWYVDGVEVHNAKTKPREEQYNSTYRVVSVLTVLHQDWLNGKEYKCKVSNKALPRPIEKTISKAKGQPREPQVYTLPPSREEMTKNQVSLTCLVKGFYPSDIAVEWESNGQPENNYKTTPPVLDSDGSFFLYSKLTVDKSRWQQGNVFSCSVMHEALHNHYTQKSLSLSPG
light: DIVLTQSPDSLAVSLGERATINCRASKNVDSYGNSFMHWYQQKPGQPPKLLIYRASNLESGVPDRFSGSGSGTDFTLTISSLQAEDVAVYYCQQSNEDPLTFGQGTKLEIKRTVAAPSVFIFPPSDEQLKSGTASVVCLLNNFYPREAKVQWKVDNALQSGNSQESVTEQDSKDSTYSLSSTLTLSKADYEKHKVYACEVTHQGLSSPVTKSFNRGEC
B3: 5F11-45-V9-DA-sup (antibody, human IgG1, kappa)
heavy chain: B2 heavy with E270A
light chain: B2 light
notes: Tested as supernatant of antibody-producing cells; also called 5F11-45 V9 D270A
B4: 5F11-45-V9-DQ-sup (antibody, human IgG1, kappa)
heavy chain: B2 heavy with E270Q
light chain: B2 light
notes: Tested as supernatant of antibody-producing cells; also called 5F11-45 V9 D270Q
B5: 5F11-45-V9-DS-sup (antibody, human IgG1, kappa)
heavy chain: B2 heavy with E270S
light chain: B2 light
notes: Tested as supernatant of antibody-producing cells; also called 5F11-45 V9 D270S
B6: 5F11 (parental) (antibody, V domains shown)
VH: QVQLQQSAAELARPGASVKMSCKASGYTFTDLSMHWIKQRPGQGLEWIGYITPSSGYTAYNQKFKGKTTLTADKSSSTAYMQLSSLTSEDSAVYYCARLILQRGAYWGQGTLVTVSA
VL: DIVLTQSPASLAVSLGQRATISCRASKNVDSYGNSFMHWYQQKPGQPPKLLIYRASNLESGIPARFGGSGSGTDFTLTINPVEADDVATYYCQQSNEDPLTFGAGTKLELK
notes: Mouse variable domains; also called 1802.3717.5F11.A11.E7; mAb 5F11

Columns and labels:
FcγRIIb = biological target: T1, FcγRIIb (human, UniProt P31994 43-217, limits assumed); assay: BLI (ForteBio Octet), %Rmax at 1 µM hCD32b/FcγRIIb
T1 construct: Construct not described; also called hCD32b/FcγRIIb
T1 sequence (looked up): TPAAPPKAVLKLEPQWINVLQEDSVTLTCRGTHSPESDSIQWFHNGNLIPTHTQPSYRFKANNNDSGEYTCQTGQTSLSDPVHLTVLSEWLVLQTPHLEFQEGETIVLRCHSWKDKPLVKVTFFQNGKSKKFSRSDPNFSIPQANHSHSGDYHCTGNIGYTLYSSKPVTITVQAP
Method: (§1) See Example 8. Antibody names including “-sup” represent supernatants from antibody producing cells, whereas others are purified antibodies. Data are presented as percentages of a maximum receptor binding value for each combination of antibody and receptor, as measured in a ForteBio Octet system. See, e.g., Example 3. Each cluster of three bars represents, from left to right, binding to hCD32a/FcγRIIa-H131 (10 μM) (hatched bars), […] (10 μM) (black bars), and hCD32b/FcγRIIb (1 μM) (white bars).
(§2) Supernatants were obtained from cells expressing these antibodies and assayed for binding to hCD32/FcγRII. Selected purified antibodies without mutations at position 270 were used as controls.

FcγRIIa-R131 = biological target: T2, FcγRIIa-R131 (human, UniProt P12318 34-218, limits assumed); assay: BLI (ForteBio Octet), %Rmax at 10 µM FcγRIIa-R131 (CD32a-R131 on the sheet)
T2 construct: Construct not described
T2 sequence (looked up): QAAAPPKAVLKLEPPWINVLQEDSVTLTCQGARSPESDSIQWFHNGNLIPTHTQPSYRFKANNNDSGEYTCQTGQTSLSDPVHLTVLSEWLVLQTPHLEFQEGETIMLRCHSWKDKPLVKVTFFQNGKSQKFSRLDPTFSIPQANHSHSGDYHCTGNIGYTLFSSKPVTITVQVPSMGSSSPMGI
Method: as §1, §2

FcγRIIa-H131 [1] = biological target: T3, FcγRIIa-H131 (human, UniProt P12318 34-218, limits assumed); assay: BLI (ForteBio Octet), % of maximum receptor binding (%Rmax) at 10 µM hCD32a/FcγRIIa-H131
T3 construct: Construct not described; also called hCD32a/FcγRIIa-H131
T3 sequence (looked up): T2 sequence (looked up) with R134H
Method: as §1, §2

FcγRIIa-H131 [2] = biological target: T3, FcγRIIa-H131; assay: BLI (ForteBio Octet), %Rmax at 10 µM hCD32a/FcγRIIa-H131
Method: as §1, §2

[3] = biological target: T4, recombinant human CD40 monomer (human, UniProt P25942 21-193); assay: BLI (Octet RED); run in parallel with 5F11-45
T4 construct: also called huCD40-monomer; soluble human CD40

[4] = biological target: T4, recombinant human CD40 monomer; assay: BLI (Octet RED); antibody supernatant captured on protein A sensors, huCD40-monomer in solution
Text: The closest matching human germline region sequence was selected for each mouse variable domain, and these human framework regions were used to replace murine frameworks in the “CDR graft” versions of the antibodies. Additional amino acid substitutions, such as framework back-mutations, were then made as necessary to restore the binding affinity of the humanized antibody. Further amino acid substitutions were made to eliminate sequence liabilities. The sequence relationships between the various forms of the antibodies of the present invention are provided at Table 6. The binding of various agonistic anti-huCD40 antibodies to soluble human CD40 was determined by Biolayer Interferometry (BLI) analysis using a Fortebio Octet RED (Rapid system—Extended Detection) label-free interaction analysis instrument. All studies were performed in 10 mM NaₓPO₄, 130 mM NaCl, 0.05% Surfactant P20 (pH 7.1) at 25° C. Briefly, anti-huCD40 antibody supernatants (diluted to 10 μg/ml or captured undiluted if supernatant concentration was less than 10 μg/ml) were captured on protein A coated biosensors (Pall Fortebio #18-5010) using a loading time of 90 s and shake speed of 1000 rpm. Supernatants were first screened for binding to 1 μM recombinant human CD40 monomer (huCD40-monomer) using 180 s association and dissociation times, at 1000 rpm, with two 15 s conditioning steps using 10 mM glycine pH 1.5 in between binding cycles.

T4 sequence (P25942 21-193 limits assumed): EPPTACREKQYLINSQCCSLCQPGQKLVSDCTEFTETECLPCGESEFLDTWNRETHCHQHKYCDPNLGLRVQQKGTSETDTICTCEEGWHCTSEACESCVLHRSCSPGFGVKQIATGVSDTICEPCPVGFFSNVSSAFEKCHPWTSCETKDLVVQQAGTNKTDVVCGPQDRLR

binding result (FcγRIIb)	binding result (FcγRIIa-R131)	binding result (FcγRIIa-H131 [1])	binding result (FcγRIIa-H131 [2])	Kd [3]	Kd [4]	Binder
binds	binds	binds	–	–	–	B1
binds	binds	–	binds	–	–	B2
binds	binds	–	binds	–	–	B3
binds	binds	–	binds	–	–	B4
binds	binds	–	binds	–	–	B5
–	–	–	–	8.2 nM	4.7 nM	B6
